Drawing on patent US20220177524A1, this text covers cytotoxicity on target cells (luciferase assay), MACS-sorted TCRαβ negative CD20 TAC-T cells and cytotoxicity on target cells (luciferase assay), MACS-sorted TCRαβ negative CD20 cTCR-T cells for two substances.

This experiment has as its target CD20 on Raji cells (CD20+) or K562-CD20 cells (UniProt P11836). Description: cell-based or functional assay.

On to “anti-CD20 TAC (anti-CD20 scFv (Leu-16)-(GGGGS)3-huUCHT1.Y177T-GGGGS-CD4)”, for which the cytotoxicity on target cells (luciferase assay), MACS-sorted TCRαβ negative CD20 TAC-T cells worked out at 54.6%. “anti-CD20 chimeric TCR (anti-CD20 scFv (Leu-16)-(GGGGS)3-CD3epsilon)” gave a cytotoxicity on target cells (luciferase assay), MACS-sorted TCRαβ negative CD20 cTCR-T cells of 49.2%.
